Results from US20110003315A1.

Target: mouse VLDLR (skeletal muscle) (mouse) (UniProt P98156)
Test: cell-based or functional assay

Sequence of mouse VLDLR (skeletal muscle) (mouse) (P98156 28-873): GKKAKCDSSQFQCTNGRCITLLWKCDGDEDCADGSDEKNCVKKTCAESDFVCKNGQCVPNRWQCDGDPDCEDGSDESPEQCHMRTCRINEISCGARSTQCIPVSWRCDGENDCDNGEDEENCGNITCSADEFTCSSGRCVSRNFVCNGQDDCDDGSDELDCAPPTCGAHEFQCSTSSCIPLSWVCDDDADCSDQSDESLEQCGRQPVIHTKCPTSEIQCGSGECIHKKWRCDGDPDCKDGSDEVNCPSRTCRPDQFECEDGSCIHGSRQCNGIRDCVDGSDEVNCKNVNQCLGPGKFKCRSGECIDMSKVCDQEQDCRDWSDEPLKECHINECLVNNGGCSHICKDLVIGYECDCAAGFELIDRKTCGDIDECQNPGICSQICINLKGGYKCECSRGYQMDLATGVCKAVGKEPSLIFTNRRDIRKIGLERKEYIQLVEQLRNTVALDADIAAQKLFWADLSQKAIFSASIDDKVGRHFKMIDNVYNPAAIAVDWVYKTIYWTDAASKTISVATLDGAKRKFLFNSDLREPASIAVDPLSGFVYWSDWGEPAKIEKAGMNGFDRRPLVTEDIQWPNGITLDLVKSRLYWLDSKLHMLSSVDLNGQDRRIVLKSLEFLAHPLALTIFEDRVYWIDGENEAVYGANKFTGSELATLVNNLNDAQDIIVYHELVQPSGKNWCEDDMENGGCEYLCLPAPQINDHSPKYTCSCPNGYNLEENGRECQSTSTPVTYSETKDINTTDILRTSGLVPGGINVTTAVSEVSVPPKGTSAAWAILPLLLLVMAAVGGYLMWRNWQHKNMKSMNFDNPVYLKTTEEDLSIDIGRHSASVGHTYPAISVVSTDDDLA

level of VLDLR in muscle of transgenic mice against non-transgenic control littermates: < 3 fold
Substance: wild type human PCSK9 with C-terminal V5 tag (from UniProt Q8NBP7 31-692) (enzyme)
